For data set [1], the target named is CLPB-NBD (NBD-only variant, N-terminal ANK domain truncated) (human) (UniProt Q9H078). Kind of data set: cryo-EM 2D classification.
Data set [2] deals with CLPB-NBD^E425Q (human) (UniProt Q9H078). The experiment in a line: cryo-EM structure.
The target of data set [3] is CLPB^isoform1 (human). Kind of data set: cryo-EM 2D classification.
Data set [4] concerns the molecule itself. The experiment in a line: cryo-EM structure.
Data set [5] deals with the molecule itself. The experiment in a line: SEC + other: negative-staining EM.
Data set [6] deals with the molecule itself. The experiment in a line: SEC.

Residue numbers refer to the chain shown, from its start. Names may count otherwise. “And” between values parts separate entries of the source, which are not always exact repeats. Equal values may be shown once.

For “CLPB-NBD (NBD-only variant, N-terminal ANK domain truncated) (from UniProt Q9H078-2 1-677) (domain or fragment)”, the stoichiometry N in data set [1] is 6 and 7.

As for “CLPB-NBD^E425Q (from UniProt Q9H078-2 1-677) (domain or fragment)”, the stoichiometry N in data set [2] was 6 and 7 and 9.

CLPB^isoform1 (natural protein): in data set [3], the stoichiometry N is 14.

B1: CLPB-N127 (human CLPB isoform 2 starting from the PARL cleavage site) (natural protein)
chain: YSKSPSNKDAALLEAARANNMQEVSRLLSEGADVNAKHRLGWTALMVAAINRNNSVVQVLLAAGADPNLGDDFSSVYKTAKEQGIHSLEVLITREDDFNNRLNNRASFKGCTALHYAVLADDYRTVKELLDGGANPLQRNEMGHTPLDYAREGEVMKLLRTSEAKYQEKQRKREAEERRRFPLEQRLKEHIIGQESAIATVGAAIRRKENGWYDEEHPLVFLFLGSSGIGKTELAKQTAKYMHKDAKKGFIRLDMSEFQERHEVAKFIGSPPGYVGHEEGGQLTKKLKQCPNAVVLFDEVDKAHPDVLTIMLQLFDEGRLTDGKGKTIDCKDAIFIMTSNVASDEIAQHALQLRQEALEMSRNRIAENLGDVQISDKITISKNFKENVIRPILKAHFRRDEFLGRINEIVYFLPFCHSELIQLVNKELNFWAKRAKQRHNITLLWDREVADVLVDGYNVHYGARSIKHEVERRVVNQLAAAYEQDLLPGGCTLRITVEDSDKQLLKSPELPSPQAEKRLPKLRLEIIDKDSKTRRLDIRAPLHPEKVCNTI
On to B1, for which the “stoichiometry N” value in data set [4] was determined as 14.

B2: CLPB^R227E (natural protein)
chain: B1 chain with R101E
For B2, the binding result in data set [5] is listed as “binds”.

B3: CLPB^E425Q (Walker B mutant of CLPB-N127) (natural protein)
chain: B1 chain with E299Q
Take B3: the “stoichiometry N” value in data set [4] came to 12.

B4: CLPB^R178E (natural protein)
chain: B1 chain with R52E
For B4, the binding result in data set [5] is recorded as “binds”.

B5: CLPB^Δ201-232 (natural protein)
chain: YSKSPSNKDAALLEAARANNMQEVSRLLSEGADVNAKHRLGWTALMVAAINRNNSVVQVLLAAGADPNLGDDFSSFKGCTALHYAVLADDYRTVKELLDGGANPLQRNEMGHTPLDYAREGEVMKLLRTSEAKYQEKQRKREAEERRRFPLEQRLKEHIIGQESAIATVGAAIRRKENGWYDEEHPLVFLFLGSSGIGKTELAKQTAKYMHKDAKKGFIRLDMSEFQERHEVAKFIGSPPGYVGHEEGGQLTKKLKQCPNAVVLFDEVDKAHPDVLTIMLQLFDEGRLTDGKGKTIDCKDAIFIMTSNVASDEIAQHALQLRQEALEMSRNRIAENLGDVQISDKITISKNFKENVIRPILKAHFRRDEFLGRINEIVYFLPFCHSELIQLVNKELNFWAKRAKQRHNITLLWDREVADVLVDGYNVHYGARSIKHEVERRVVNQLAAAYEQDLLPGGCTLRITVEDSDKQLLKSPELPSPQAEKRLPKLRLEIIDKDSKTRRLDIRAPLHPEKVCNTI
Regarding B5, the binding result in data set [6] is on record as “binds”.

Values taken from paper doi:10.1101/2022.03.10.483744 (bioRxiv, 2022).
